Assay results as given in article PMC7661038, “Dot1l interacts with Zc3h10 to activate Ucp1 and other thermogenic genes” (eLife, 2020).

Target: T1, Flag-Zc3h10 (mouse, UniProt Q8R205 1-435)
T1 sequence (looked up): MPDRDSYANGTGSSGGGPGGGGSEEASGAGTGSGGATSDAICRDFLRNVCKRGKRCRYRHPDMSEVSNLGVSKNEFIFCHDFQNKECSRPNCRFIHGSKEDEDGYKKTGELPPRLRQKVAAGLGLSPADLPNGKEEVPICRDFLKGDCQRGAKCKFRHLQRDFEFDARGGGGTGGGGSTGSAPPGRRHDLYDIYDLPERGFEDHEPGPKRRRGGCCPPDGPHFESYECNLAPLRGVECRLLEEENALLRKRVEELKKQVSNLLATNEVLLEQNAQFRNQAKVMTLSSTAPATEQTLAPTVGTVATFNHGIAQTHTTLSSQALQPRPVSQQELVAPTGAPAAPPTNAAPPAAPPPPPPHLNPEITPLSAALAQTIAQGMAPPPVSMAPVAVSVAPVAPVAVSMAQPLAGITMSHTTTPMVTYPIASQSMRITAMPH
Test: cell-based or functional assay

B1: HA-Dot1l (enzyme, mouse, UniProt Q6XZL8 1-1540, looked up)
chain: MGEKLELRLKSPVGAEPAVYPWPLPVYDKHHDAAHEIIETIRWVCEEIPDLKLAMENYVLIDYDTKSFESMQRLCDKYNRAIDSIHQLWKGTTQPMKLNTRPSNGLLRHILQQVYNHSVTDPEKLNNYEPFSPEVYGETSFDLVAQMIDEIKMTEDDLFVDLGSGVGQVVLQVAAATNCKHHYGVEKADIPAKYAETMDREFRKWMKWYGKKHAEYTLERGDFLSEEWRERIANTSVIFVNNFAFGPEVDHQLKERFANMKEGGRIVSSKPFAPLNFRINSRNLSDIGTIMRVVELSPLKGSVSWTGKPVSYYLHTIDRTILENYFSSLKNPKLREEQEAARRRQQRENKSNATTPTKVPESKAAATEAPADSGAEEEKSGVATVKKPSPSKARKKKLNKKGRKMAGRKRGRPKKMSAASAERKSKKSQSTLDLLHSPPPAPPSASPQDAYRAPHSPFYQLPPSTQLHSPNPLLVAPTPPALQKLLESFRIQYLQFLAYTKTPQYKANLQQLLDQEKEKNTQLLGTAQQLFGHCQAQKEEIRRLFQQKLDELGVKALTYNDLIQAQKEISAHNQQLREQSEQLEKDNSELRSQSLRLLRARCEELRLDWSTLSLENLRKEKQALRSQISEKQRHCLELQISIVELEKTQRQQELLQLKSCVPPDDALSLHLRGKGALGRELEADAGRLRLELDCAKISLPHLSSMSPELSMNGHAASYELCNAASRPSSKQNTPQYLASPLDQEVVPCTPSHSGRPRLEKLSGLALPDYTRLSPAKIVLRRHLSQDHTGASKAATSEPHPRPEHPKESSLPYQSPGLSNSMKLSPQDPPLASPATSPLTSEKGSEKGVKERAYSSHGETITSLPVSIPLSTVQPNKLPVSIPLASVVLPSRAERARSTPSPVPQPRDSSATLEKQTGASAHGAGGAGAGSRSLAVAPTGFYAGSVAISGALASSPAPLASGMESAVFDESSGPSSLFATMGSRSTPPQHPPLLSQSRNSGPASPAHQLTASPRLSVTTQGSLPDTSKGELPSDPAFSDPESEAKRRIVFSISVGASSKQSPSTRHSPLTSGTRGDCVQSHGQDSRKRSRRKRASAGTPSLSTGVSPKRRALPTVAGLFTQSSGSPLNLNSMVSNINQPLEITAISSPESSLKSSPTPYQDHDQPPVLRKERPLGLTNGAHYSPLTSDEEPGSEDEPSSARIERKIATISLESKSPPKTLENGGGLVGRKSAPSSEPINSSKWKSTFSPISDLGLAKAVDSPLQAGSALSHSPLFSFRPSLEEPAAEAKLPTHPRKSFAGSLGAAEGPSPGTNPPNGLAFSGGLAADLGLHSFNDGASLSHKGPDVTGLSASLSFPSQRGKDSTTEANPFLSRRQPEGLGGLKGEGNANKESGESLPLCGPSDKASLPHGSRASKGRDRELDFKGGHNLFISAAAVPPGGLLGGPGLVTVASSAGSATPTAQAPRPFLSTFAPGPQFTLGPMSLQANLGSVAGSSVLQSLFSTVPAAAGLVHVSSTATRLTNSHTMGSFSSGVAGGTVGGN
Q: B1 was tested. Which “Ucp1 promoter activity, luciferase reporter (−5.5 kb Ucp1-Luc) in HEK293 cells cotransfected with Zc3h10 and Dot1l, against empty vector control (Zc3h10 alone over 3-fold; Dot1l alone no activation)” value did it give?
A: 11 fold
